Test results: patent publication US20250313621A1 (NXERA PHARMA UK, published 2025)

Key:
[1] = biological target: T1, Wildtype human PAR2 expressed on cells (human, UniProt P55085 37-397); assay: cell-based or functional assay
T1 sequence: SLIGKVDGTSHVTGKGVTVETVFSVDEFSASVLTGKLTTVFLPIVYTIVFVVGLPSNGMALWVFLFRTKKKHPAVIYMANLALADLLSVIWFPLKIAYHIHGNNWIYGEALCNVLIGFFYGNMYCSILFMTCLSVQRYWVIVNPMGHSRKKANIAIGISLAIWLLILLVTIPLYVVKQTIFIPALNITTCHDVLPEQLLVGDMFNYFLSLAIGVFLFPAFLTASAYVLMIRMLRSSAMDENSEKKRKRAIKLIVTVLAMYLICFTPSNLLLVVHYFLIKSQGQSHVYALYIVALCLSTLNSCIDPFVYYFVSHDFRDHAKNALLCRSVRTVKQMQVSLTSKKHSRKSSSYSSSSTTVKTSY

[2] = biological target: T2, PAR2-3: P157: 1-377, glycosylated, pBacMamHisStrepII, full length (human, UniProt P55085 26-377); assay: SPR (table head: Octet); IgG captured via Fc, detergent solubilised FL-N PAR2 StaR as analyte
T2 construct: detergent-solubilised analyte in SPR, or on infected cells in flow cytometry; also called FL-N PAR2 StaR; FL-N StaR; not shown: C-terminal StrepII and deca-histidine tags
T2 sequence: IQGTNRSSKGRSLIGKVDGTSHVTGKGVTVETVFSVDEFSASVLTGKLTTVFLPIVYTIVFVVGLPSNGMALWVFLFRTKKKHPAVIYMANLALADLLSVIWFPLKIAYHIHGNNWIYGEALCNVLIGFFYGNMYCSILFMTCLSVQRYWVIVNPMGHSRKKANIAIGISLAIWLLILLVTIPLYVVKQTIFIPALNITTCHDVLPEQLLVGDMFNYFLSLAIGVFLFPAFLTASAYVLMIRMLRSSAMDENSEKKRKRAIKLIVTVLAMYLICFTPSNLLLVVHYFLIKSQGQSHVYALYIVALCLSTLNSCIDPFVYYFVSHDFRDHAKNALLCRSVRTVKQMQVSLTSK
Procedure: (§1) For all eleven IgG1f_AEASS, affinities to human PAR2 were determined by SPR. The IgGs were captured via their Fc-fragment and detergent (LMNG/CHS) solubilised FL-N PAR2 StaR was used as analyte in solution. 50 mM HEPES pH 7.5, 150 mM NaCl, 0.02% LMNG was used as assay buffer. To minimize artefacts introduced by non-specific interaction of FL-N PAR2 StaR with the sensors, the CM3 sensors were used as basis to immobilize a high density of anti-hu-Fc capture antibody (BR-1008-39, GE Healthcare). IgGs were captured with relatively high levels of approximately 500 RU to achieve a higher ratio of specific to non-specific binding (while still maintaining conditions suitable for kinetic characterization). Affinities ranged from 6.5 nM to 130 pM. The koff values of the best candidates were at the lower assay limit. A minimum koff of 2.00E-05 s⁻¹ was reported (corresponding to 3% dissociation in 1500 s).

Wildtype human PAR 1 = biological target: T3, Wildtype human PAR 1 (human, UniProt P25116 42-425); assay: cell-based or functional assay
T3 sequence: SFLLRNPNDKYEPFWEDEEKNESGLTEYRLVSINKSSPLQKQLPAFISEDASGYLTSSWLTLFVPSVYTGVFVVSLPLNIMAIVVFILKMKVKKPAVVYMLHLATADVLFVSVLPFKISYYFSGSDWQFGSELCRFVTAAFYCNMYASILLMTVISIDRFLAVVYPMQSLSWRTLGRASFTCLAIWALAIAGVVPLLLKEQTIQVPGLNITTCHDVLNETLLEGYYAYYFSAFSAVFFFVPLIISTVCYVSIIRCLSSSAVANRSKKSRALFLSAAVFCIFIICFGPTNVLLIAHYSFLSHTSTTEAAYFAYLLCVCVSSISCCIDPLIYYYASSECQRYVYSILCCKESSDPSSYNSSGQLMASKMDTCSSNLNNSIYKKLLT

[3] = biological target: T4, Soluble PAR2 StaR (recombinant human PAR2 StaR protein in detergent, construct not stated) (human, UniProt P55085 37-377, limits assumed); assay: SPR Biacore T200; IgG captured, PAR2 as analyte; 37 C, 30 min dissociation
T4 construct: also called purified PAR2
T4 sequence: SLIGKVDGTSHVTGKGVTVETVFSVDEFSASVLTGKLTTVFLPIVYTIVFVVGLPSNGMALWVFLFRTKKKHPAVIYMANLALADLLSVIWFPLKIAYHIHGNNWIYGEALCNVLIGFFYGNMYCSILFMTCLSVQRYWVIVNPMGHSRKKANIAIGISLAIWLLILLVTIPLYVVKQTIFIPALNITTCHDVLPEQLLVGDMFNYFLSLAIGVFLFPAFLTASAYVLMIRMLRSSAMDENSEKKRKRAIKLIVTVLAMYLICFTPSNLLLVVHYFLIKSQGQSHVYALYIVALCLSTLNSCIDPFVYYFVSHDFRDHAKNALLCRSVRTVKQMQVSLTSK
Procedure: The assay of PAR2 interaction with anti-PAR2 antibodies was carried out using a Biacore T200 instrument (GE Healthcare). Anti-human IgG antibody (Human Antibody Capture Kit, GE Healthcare) was immobilised by amine coupling in the target and reference flow cells of sensor chip CM3 (GE Healthcare) to a surface density of 2700 to 3000 resonance units (RU). Immobilisation was carried out at 25° C. in HBS-EP+buffer (GE Healthcare). The buffer was then changed to 50 mM HEPES, pH 7.5, 150 mM NaCl, 0.02% LMNG, 0.002% CHS for the PAR2-antibody interaction assay which was carried out at either 25 or 37° C. Each cycle of the assay began with antibody capture in the target flow cell to a level of 400 to 450 RU. PAR2 was then injected over target and reference flow cells at three concentrations, 5 min each, followed by 30-min dissociation. The surface was then regenerated with a solution provided in the kit (Human Antibody Capture Kit, GE Healthcare). With every antibody tested the first cycle was a blank (three injections of the running buffer) and the second a series of 50, 100, and 200 nM PAR2 injections.

[4] = biological target: T2, PAR2-3: P157: 1-377, glycosylated, …; assay: SPR (table head: Octet); IgG captured via Fc, FL-N PAR2 StaR as analyte; koff at the lower assay limit
Procedure: as §1

[5] = biological target: T1, Wildtype human PAR2 expressed on cells; assay: cell-based or functional assay; remark: listed apart in the source

Row | Binder | % Max Inhibition, AP challenge, IP-One [1] [%] | kon [2] [M⁻¹ s⁻¹] | Human PAR1 SFLLR IC50, IP-One (Wildtype human PAR 1) [nM] | SFLLR fold inhibition, human PAR1, IP-One (Wildtype human PAR 1) [fold] | Kd [3] [nM] | koff [3] [s⁻¹] | kon [3] [M⁻¹ s⁻¹] | t½ [3] [h] | Kd [4] [nM] | AP IC50, HT-29 FLIPR calcium mobilisation [5] [nM] | Trypsin IC50, HT-29 FLIPR calcium mobilisation [5] [nM]
1 | Y022870 (antibody, human IgG1, lambda, V domains shown, also called Y22870) VH: EVQLLESGGGLVQPGGSLRLSCAASGFSFSRYAITWVRQAPGKGLEWVSTISALGLETYYAESVRGRFTISRDNSKNTLYLQMNSLRAEDTAVYYCARGFHYTHSGKRYYYPFDIWGQGTLVTVSS VL: QSALTQPASVSGSPGQSITISCTGTSSDVGSYNLVSWYQQHPGKAPKLMIYEGSKRPSGVSNRFSGSKSGNTASLTISGLQAEDEADYYCSQYATFIAFAVFGGGTKLTVLG | 203 | 96000 | > 3160 | 0 | 0.45 | 1.9e-05 | 41000 | 10.3 | ≤ 0.21 | 17.8 | 40
2 | Y022877 (antibody, human IgG1, lambda, V domains shown, also called Y22877) VH: EVQLLESGGGLVQPGGSLRLSCAASGFTFSRYAMTWVRQAPGKGLEWVSTISGLGQEAYYAGSVKGRFTISRDNSKNTLYLQMNSLRAEDTAVYYCARGFHYTHSGKRYYYPFDIWGQGTLVTVSS VL: QSALTQPASVSGSPGQSITISCTGTSSDVGSYNLVSWYQQHPGKAPKLMIYEGSKRPSGVSNRFSGSKSGNTASLTISGLQAEDEADYYCSQYATFIAFAVFGGGTKLTVLG | 167 | 68000 | > 3160 | 0 | 0.55 | 1.7e-05 | 31000 | 11.5 | 0.29 | 44.3 | 49
3 | Y022883 (antibody, human IgG1, lambda, V domains shown, also called Y22883; Y02283) VH: EVQLLESGGGLVQPGGSLRLSCAASGFSFTRYAISWVRQAPGKGLEWVSVISGHGSEANYAESVKGRFTISRDNSKNTLYLQMNSLRAEDTAVYYCARGFHYTHSGKRYYYPFDIWGQGTLVTVSS VL: QSALTQPASVSGSPGQSITISCTGTSSDVGSYNLVSWYQQHPGKAPKLMIYEGSKRPSGVSNRFSGSKSGNTASLTISGLQAEDEADYYCSQYATFIAFAVFGGGTKLTVLG | 149 | 140000 | > 3160 | 0 | 0.65 | 2.3e-05 | 36000 | 8.3 | 0.14 | 42 | 47
